Assay [1] concerns the target human CXCR4 (human). The assay can be described thus: cell-based or functional assay.
For a further assay, the target named is CCR5 (UniProt P51681). Description: cell-based or functional assay.
Assay [2] deals with human CXCR4 (human). Description: competition with [125I]-CXCL12 on HEK293T-CXCR4 membranes.
Assay [3] addresses human CXCR4 (human). The assay can be described thus: competition vs [125I]-CXCL12, membranes of HEK293T cells expressing CXCR4.
The target of assay [4] is human CXCR4 (human). Description: competition vs [125I]-CXCL12; potency relative to monovalent 238D4.
In assay [5] the target is human CXCR4 (human).
The target in assay [6] is human CXCR4 (human). Description: competition vs [125I]-CXCL12; potency relative to monovalent 238D2.
The target in assay [7] is human CXCR4 (human). Description: competition vs [125I]-CXCL12, membranes of HEK293T cells expressing CXCR4; displacement at 0.5 µM, maximum not reached.

The values below come from patent US20110318347A1.

Where only a bound is given, the exact number is not on record here.

CCR5, sequence (P51681 whole entry): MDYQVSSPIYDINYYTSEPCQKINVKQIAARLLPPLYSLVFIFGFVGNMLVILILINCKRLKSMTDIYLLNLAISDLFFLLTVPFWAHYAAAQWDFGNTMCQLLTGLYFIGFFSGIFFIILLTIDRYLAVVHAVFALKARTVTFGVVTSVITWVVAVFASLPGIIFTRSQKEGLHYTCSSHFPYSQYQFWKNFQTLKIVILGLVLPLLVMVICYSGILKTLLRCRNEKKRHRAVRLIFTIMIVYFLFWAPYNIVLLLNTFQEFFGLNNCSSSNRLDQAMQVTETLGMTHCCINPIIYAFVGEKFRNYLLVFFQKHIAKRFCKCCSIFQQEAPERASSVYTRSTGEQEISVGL

B1: 238D2-15GS-238D4 (VHH)
chain: EVQLVESGGGLVQTGGSLRLSCAASGFTFSSYAMSWVRQAPGKGLEWVSGIKSSGDSTRYAGSVKGRFTISRDNAKNMLYLQMYSLKPEDTAVYYCAKSRVSRTGLYTYDNRGQGTQVTVSSGGGGSGGGGSGGGGSEVQLMESGGGLVQAGGSLRLSCAASGRTFNNYAMGWFRRAPGKEREFVAAITRSGVRSGVSAIYGDSVKDRFTISRDNAKNTLYLQMNSLKPEDTAVYTCAASAIGSGALRRFEYDYSGQGTQVTVSS
In the assay with human CXCR4 (human) [1], B1 displayed an Anti-HIV-1 activity (in nM), MT-4/HE of 0.16 nM; an Anti-HIV-1 activity (in nM), MT-4/NL4.3 of 0.25 nM; an Anti-HIV-1 activity (in nM), PBMC/HE of 1.5 nM; an Anti-HIV-1 activity (in nM), PBMC/NL4.3 of 0.5 nM. Besides, in the assay with human CXCR4 (human) [1], the Anti-HIV-1 activity (in nM), U87.CD4.CXCR4/NL4.3 came out at 0.36 nM; the Chemotaxis, Jurkat/0.3 nM CXCL12, Imax (%) is 107%; the Chemotaxis, Jurkat/0.3 nM CXCL12, pKi or pIC50 worked out at 9.86; the IC50, HIV-1 NL4.3, MT-4 cells, exp. 1 was determined as 16.6 ng/mL. In the assay with human CXCR4 (human) [1], the IC50, HIV-1 NL4.3, PBMC donor 1 amounted to 10 ng/mL; the IC50, HIV-1 NL4.3, PBMC donor 2 is 17.9 ng/mL; the IC50, HIV-1 UG270, PBMC donor 1 was determined as 21.2 ng/mL; the IC50, HIV-1 UG270, PBMC donor 2 is 89.4 ng/mL. In the assay with human CXCR4 (human) [1], this molecule yielded an IC90, HIV-1 NL4.3, MT-4 cells, exp. 1 of 71.1 ng/mL; an IC90, HIV-1 NL4.3, PBMC donor 1 of 110 ng/mL; an IC90, HIV-1 NL4.3, PBMC donor 2 of 34.1 ng/mL; an IC90, HIV-1 UG270, PBMC donor 1 of 78.9 ng/mL. Further, in the assay with human CXCR4 (human) [1], the IC90, HIV-1 UG270, PBMC donor 2 was 170 ng/mL; the nM IC50, HIV-1 NL4.3, PBMC donor 1 is 0.33 nM; the nM IC50, HIV-1 NL4.3, PBMC donor 2 is 0.6 nM; the nM IC50, HIV-1 UG270, PBMC donor 1 is 0.71 nM. In the assay with human CXCR4 (human) [1], this molecule showed a nM IC50, HIV-1 UG270, PBMC donor 2 of 2.98 nM. For the same molecule, in the assay with CCR5, the Anti-HIV-1 activity (in nM), PBMC/BaL is > 100 nM; the Anti-HIV-1 activity (in nM), U87.CD4.CCR5/BaL was > 100 nM; the IC50, HIV-1 BaL, PBMC donor 1 was > 1000 ng/mL; the IC50, HIV-1 BaL, PBMC donor 2 was > 1000 ng/mL. In the assay with CCR5, the IC90, HIV-1 BaL, PBMC donor 1 is > 1000 ng/mL; the IC90, HIV-1 BaL, PBMC donor 2 was > 1000 ng/mL; the nM IC50, HIV-1 BAL, PBMC donor 1 was > 67 nM; the nM IC50, HIV-1 BAL, PBMC donor 2 was > 67 nM. Besides, the IC50 (read off the curve) with human CXCR4 (human) [2] was 500 pM. In the assay with human CXCR4 (human) [3], the Displacem. (%) amounted to 92% and the pKi turned out to be 9.45. The same molecule had a Rel. potency with human CXCR4 (human) [4] of 17 fold. Moreover, the IC50 (read off the curve), migration of Jurkat cells towards 0.3 nM CXCL12 in the assay with human CXCR4 (human) [5] was determined as 300 pM. The molecule also yielded a Rel. potency with human CXCR4 (human) [6] of 28 fold.

B2: 238D2-20GS-238C5 (VHH)
chain: EVQLVESGGGLVQTGGSLRLSCAASGFTFSSYAMSWVRQAPGKGLEWVSGIKSSGDSTRYAGSVKGRFTISRDNAKNMLYLQMYSLKPEDTAVYYCAKSRVSRTGLYTYDNRGQGTQVTVSSGGGGSGGGGSGGGGSGGGGSEVQLMESGGGLVQAGGSLRLACAASGFTFEDYAIGWFRKAPGKEREGVSCISGSDGSTTYADSVKGRFTISTDNAKNTVYLEMNSLKPEDTAVYYCAQQYGVGGRVVCPGPYEYDVWGQGTQVTVSS
For the molecule B2, in the assay with human CXCR4 (human) [3], the Displacem. (%) is 110% and the pKi came out at 7.35. In the assay with human CXCR4 (human) [6], this molecule came in with a Rel. potency of 0.18 fold.

B3: 238D2-20GS-238D4 (VHH)
chain: EVQLVESGGGLVQTGGSLRLSCAASGFTFSSYAMSWVRQAPGKGLEWVSGIKSSGDSTRYAGSVKGRFTISRDNAKNMLYLQMYSLKPEDTAVYYCAKSRVSRTGLYTYDNRGQGTQVTVSSGGGGSGGGGSGGGGSGGGGSEVQLMESGGGLVQAGGSLRLSCAASGRTFNNYAMGWFRRAPGKEREFVAAITRSGVRSGVSAIYGDSVKDRFTISRDNAKNTLYLQMNSLKPEDTAVYTCAASAIGSGALRRFEYDYSGQGTQVTVSS
In the assay with human CXCR4 (human) [1], B3 gave an Anti-HIV-1 activity (in nM), MT-4/NL4.3 of 0.25 nM; an Anti-HIV-1 activity (in nM), PBMC/HE of 2.3 nM; an Anti-HIV-1 activity (in nM), PBMC/NL4.3 of 0.2 nM; an Anti-HIV-1 activity (in nM), U87.CD4.CXCR4/NL4.3 of 0.35 nM. Besides, in the assay with human CXCR4 (human) [1], the Chemotaxis, Jurkat/0.3 nM CXCL12, Imax (%) was 100%; the Chemotaxis, Jurkat/0.3 nM CXCL12, pKi or pIC50 came out at 10.2; the IC50, HIV-1 NL4.3, MT-4 cells, exp. 1 was found to be 6.9 ng/mL; the IC50, HIV-1 NL4.3, PBMC donor 1 was determined as 18.2 ng/mL. In addition, in the assay with human CXCR4 (human) [1], the IC50, HIV-1 NL4.3, PBMC donor 2 amounted to 9.2 ng/mL; the IC50, HIV-1 UG270, PBMC donor 1 amounted to 24.2 ng/mL; the IC50, HIV-1 UG270, PBMC donor 2 was found to be 83.1 ng/mL; the IC90, HIV-1 NL4.3, MT-4 cells, exp. 1 came to 23.8 ng/mL. In the assay with human CXCR4 (human) [1], this molecule registered an IC90, HIV-1 NL4.3, PBMC donor 1 of 97.2 ng/mL; an IC90, HIV-1 NL4.3, PBMC donor 2 of 73.1 ng/mL; an IC90, HIV-1 UG270, PBMC donor 1 of 139 ng/mL; an IC90, HIV-1 UG270, PBMC donor 2 of 168 ng/mL. In the assay with human CXCR4 (human) [1], this molecule came in with a nM IC50, HIV-1 NL4.3, PBMC donor 1 of 0.61 nM; a nM IC50, HIV-1 NL4.3, PBMC donor 2 of 0.31 nM; a nM IC50, HIV-1 UG270, PBMC donor 1 of 0.81 nM; a nM IC50, HIV-1 UG270, PBMC donor 2 of 2.77 nM. In the assay with CCR5, the Anti-HIV-1 activity (in nM), PBMC/BaL is > 100 nM; the Anti-HIV-1 activity (in nM), U87.CD4.CCR5/BaL is > 100 nM; the IC50, HIV-1 BaL, PBMC donor 1 is > 1000 ng/mL; the IC50, HIV-1 BaL, PBMC donor 2 was > 1000 ng/mL. Also, in the assay with CCR5, the IC90, HIV-1 BaL, PBMC donor 1 is > 1000 ng/mL; the IC90, HIV-1 BaL, PBMC donor 2 is > 1000 ng/mL; the nM IC50, HIV-1 BAL, PBMC donor 1 was > 67 nM; the nM IC50, HIV-1 BAL, PBMC donor 2 was > 67 nM. The molecule further returned an IC50 (read off the curve) with human CXCR4 (human) [2] of 500 pM. In the assay with human CXCR4 (human) [3], this molecule gave a Displacem. (%) of 103% and a pKi of 9.44. This molecule also registered a Rel. potency in the assay with human CXCR4 (human) [4] of 17 fold. In the assay with human CXCR4 (human) [5], the IC50 (read off the curve), migration of Jurkat cells towards 0.3 nM CXCL12 was found to be 200 pM. The Rel. potency with human CXCR4 (human) [6] is 27 fold.

B4: 238D4-20GS-238D4 (VHH)
chain: EVQLMESGGGLVQAGGSLRLSCAASGRTFNNYAMGWFRRAPGKEREFVAAITRSGVRSGVSAIYGDSVKDRFTISRDNAKNTLYLQMNSLKPEDTAVYTCAASAIGSGALRRFEYDYSGQGTQVTVSSGGGGSGGGGSGGGGSGGGGSEVQLMESGGGLVQAGGSLRLSCAASGRTFNNYAMGWFRRAPGKEREFVAAITRSGVRSGVSAIYGDSVKDRFTISRDNAKNTLYLQMNSLKPEDTAVYTCAASAIGSGALRRFEYDYSGQGTQVTVSS
Consider B4, for which the IC50 (read off the curve) in the assay with human CXCR4 (human) [2] is 2000 pM. In the assay with human CXCR4 (human) [3], the Displacem. (%) was determined as 96% and the pKi amounted to 8.85. For the same molecule, in the assay with human CXCR4 (human) [4], the Rel. potency amounted to 4.4 fold.

B5: 238D2-20GS-238B10 (VHH)
chain: EVQLVESGGGLVQTGGSLRLSCAASGFTFSSYAMSWVRQAPGKGLEWVSGIKSSGDSTRYAGSVKGRFTISRDNAKNMLYLQMYSLKPEDTAVYYCAKSRVSRTGLYTYDNRGQGTQVTVSSGGGGSGGGGSGGGGSGGGGSEVQLVESGGGFVQAGGSLRLSCETSGRPLLGYTIAWFRQVPGKEREFVAYHRWSDGANLYADSVKGRFTISGHNAKNTVSLQMNSLKPEDTAVYYCAAARMTTSNDKEYLYWGQGTQVTVSS
For the molecule B5, the pKi with human CXCR4 (human) [3] is < 7. Moreover, the Displacem. (%) with human CXCR4 (human) [7] worked out at 43%. In addition, the Rel. potency with human CXCR4 (human) [6] is < 0.1 fold.

By pKi is commonly meant the Ki on a negative log10 scale, so that one unit is a factor of ten. Lower therefore signals a high Ki.
